From the supplement of paper PMC12764529
± gives the half width of the 95% confidence interval.

Columns and labels:
[1] = folding stability dG unfold from trypsin proteolysis; higher = more stable
In short: (§1)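 Bayesian fitting of sequencing counts gave K50 for each design. Unfolding free energy followed by setting this against a sequence-predicted unfolded-state K50 and a shared folded-state K50, either per protease or with trypsin and chymotrypsin combined. The designs, under 80 residues and lacking cysteine, were digested in a PA-tagged cDNA display format at 11 threefold-diluted protease concentrations and without protease, and only those with AlphaFold2 dimer inter-PAE above 15 were kept.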

[2] = folding stability dG unfold from chymotrypsin proteolysis; higher = more stable
In short: as §1

[3] = folding stability dG unfold (combined trypsin and chymotrypsin); higher = more stable
In short: as §1

SAGGSAGGEPPPVVITVTVRNPATGETVKATAVLNPDGTLQVTVTRPDGSKQTFTATISAEALKSAGGSAGG [r6_588_TrROS_Hall]
folding stability dG unfold [1]: 2.76 ± 0.33 kcal/mol | folding stability dG unfold [2]: 3.86 ± 0.15 kcal/mol | folding stability dG unfold [3]: 3.63 ± 0.34 kcal/mol

SAGGSAGGEPVKIEWEPIGRDPNGAFKFRLIIRDPDGTVQRTEIWINPNGGMQVETETIPPEDNSAGGSAGG [r6_263_TrROS]
folding stability dG unfold [1]: 1.92 ± 0.065 kcal/mol | folding stability dG unfold [2]: 2.15 ± 0.085 kcal/mol | folding stability dG unfold [3]: 2.13 ± 0.14 kcal/mol

SAGGSAGGEWVIINIMFRFPPGDPNIKIEIKFPGLPKDMKIEYSIFPTDNWYYIMVSIWVPPNASAGGSAGG [r6_482_TrROS]
folding stability dG unfold [1]: 3.66 ± 0.29 kcal/mol | folding stability dG unfold [2]: 5.16 ± 0.15 kcal/mol | folding stability dG unfold [3]: 4.85 ± 0.34 kcal/mol

SAGGSAGGFKIRPIGVDDNYIVFRFRPDDPEALKKLGFKITGVEESGGSVEIIFRMPPEAKDLISAGGSAGG [r6_109_TrROS]
folding stability dG unfold [1]: 0.781 ± 0.12 kcal/mol | folding stability dG unfold [2]: 0.399 ± 0.16 kcal/mol | folding stability dG unfold [3]: 0.584 ± 0.12 kcal/mol

SAGGSAGGGDAESYAKEKGFVEIKVTKLPDGSERVTAKYPDGTTADILYTPGQGTFTLLETKKESAGGSAGG [r6_906_JUSTAS]
folding stability dG unfold [1]: 0.154 ± 0.034 kcal/mol | folding stability dG unfold [2]: 0.407 ± 0.082 kcal/mol | folding stability dG unfold [3]: 0.332 ± 0.078 kcal/mol

SAGGSAGGGGPGAPAVPTVSINIKIEEGEKVTIRNGTNKDEIIKSTKEEAEKKGKKVTVETVEGSAGGSAGG [r6_869_JUSTAS]
folding stability dG unfold [1]: -0.273 ± 0.28 kcal/mol | folding stability dG unfold [2]: 1.26 ± 0.24 kcal/mol | folding stability dG unfold [3]: 0.883 ± 0.28 kcal/mol

SAGGSAGGGKVLLEIYVPSEVPSVEELVEKLESEGFEVVKVESVPEGDYVRILVEKDVPPESIESAGGSAGG [r6_601_TrMRF]
folding stability dG unfold [1]: 1.28 ± 0.066 kcal/mol | folding stability dG unfold [2]: 1.71 ± 0.15 kcal/mol | folding stability dG unfold [3]: 1.57 ± 0.11 kcal/mol

SAGGSAGGGLDPVPIKRVTVLRNPETDEYVVLIENEDGLPYAFPFDSLEDAERFVRRLVEEGYLSAGGSAGG [r6_65_TrMRF]
folding stability dG unfold [1]: 4.76 ± 0.09 kcal/mol | folding stability dG unfold [2]: 5.01 ± 0.061 kcal/mol | folding stability dG unfold [3]: 4.967 ± 0.047 kcal/mol

SAGGSAGGGLIEIIPNTLKAKIINPKTGKVEEIEFSNIDELIEEIKKKYPNVDFKILPNGIILGSAGGSAGG [r6_286_TrMRF]
folding stability dG unfold [1]: 3.14 ± 0.16 kcal/mol | folding stability dG unfold [2]: 2.82 ± 0.07 kcal/mol | folding stability dG unfold [3]: 3.05 ± 0.19 kcal/mol

SAGGSAGGGMMLTLSSQTTQTSYDPSGLSTTLSLTTNPLGGTTVVTTTTVPGTGEVSVTTTPSSSAGGSAGG [r6_977_JUSTAS]
folding stability dG unfold [1]: 1.32 ± 0.024 kcal/mol | folding stability dG unfold [2]: 0.508 ± 0.065 kcal/mol | folding stability dG unfold [3]: 1.04 ± 0.045 kcal/mol

SAGGSAGGGMPMNIKVEEITSETIPPDVTVSETKVIDPSGKELKYLTVTTVRTDGKTSVLTVEGSAGGSAGG [r6_830_JUSTAS]
folding stability dG unfold [1]: 0.201 ± 0.087 kcal/mol | folding stability dG unfold [2]: -0.58 ± 0.56 kcal/mol | folding stability dG unfold [3]: -0.0271 ± 0.31 kcal/mol

SAGGSAGGGMVKREIKVTVTRLPESDVWLVTVTTKIGDKWEIIPVPVAAPADLSAEELAKEVLESAGGSAGG [r6_21_JUSTAS]
folding stability dG unfold [1]: 1.09 ± 0.036 kcal/mol | folding stability dG unfold [2]: 0.751 ± 0.087 kcal/mol | folding stability dG unfold [3]: 0.939 ± 0.11 kcal/mol

SAGGSAGGGPRAVPVGELELVLGDLVVRVRFFRNPESDSVSVRVEVRPLPPISAEELARLGEEGSAGGSAGG [r6_177_TrMRF]
folding stability dG unfold [1]: 1.67 ± 0.062 kcal/mol | folding stability dG unfold [2]: 3.52 ± 0.049 kcal/mol | folding stability dG unfold [3]: 2.91 ± 0.15 kcal/mol

SAGGSAGGGRLLIDRAFDSLEDIEEFLRELETPALVHLPDGTELFYERGDGFTEIHVIPPGELGSAGGSAGG [r6_641_TrMRF]
folding stability dG unfold [1]: 0.277 ± 0.072 kcal/mol | folding stability dG unfold [2]: 1.26 ± 0.053 kcal/mol | folding stability dG unfold [3]: 1 ± 0.099 kcal/mol

SAGGSAGGGRRLLIEADSEELRELLEALPPEELKNVRVYGPGGVEFPAGEIEKYKYGPLLIEVPSAGGSAGG [r6_428_TrMRF]
folding stability dG unfold [1]: 0.174 ± 0.099 kcal/mol | folding stability dG unfold [2]: 0.756 ± 0.18 kcal/mol | folding stability dG unfold [3]: 0.669 ± 0.1 kcal/mol

SAGGSAGGGSLTPLSEDETTITLRLSPSLDEVLKELGLTVTGVEEEGETVTVTVKVSPEVKEKLSAGGSAGG [r6_109_JUSTAS]
folding stability dG unfold [1]: 0.13 ± 0.062 kcal/mol | folding stability dG unfold [2]: -0.183 ± 0.2 kcal/mol | folding stability dG unfold [3]: 0.00369 ± 0.19 kcal/mol

SAGGSAGGGSLTVTTDPDGTQTVTLPDGRTFTFTNPYGVTRLVRARPDDGFEVWLQVDGKWYPLSAGGSAGG [r6_903_TrMRF]
folding stability dG unfold [1]: 0.96 ± 0.022 kcal/mol | folding stability dG unfold [2]: 1.88 ± 0.053 kcal/mol | folding stability dG unfold [3]: 1.57 ± 0.031 kcal/mol

SAGGSAGGGTIEIEDPNGVKVEIEIDPDDGYTIIKAFMPDGWVITILMPPEGKIEIETFPLEPPSAGGSAGG [r6_415_TrROS]
folding stability dG unfold [1]: 1.92 ± 0.26 kcal/mol | folding stability dG unfold [2]: 2.96 ± 0.23 kcal/mol | folding stability dG unfold [3]: 2.43 ± 0.35 kcal/mol

SAGGSAGGGVYLNGLLPGGVALLSAPTASGEYTLILISPDNRALIFSYPADTGTPRVAEIDLPTSAGGSAGG [r6_159_TrMRF]
folding stability dG unfold [1]: 0.577 ± 0.062 kcal/mol | folding stability dG unfold [2]: 1.87 ± 0.065 kcal/mol | folding stability dG unfold [3]: 1.49 ± 0.11 kcal/mol

SAGGSAGGITPDDYFLIKLNAVVKLPNGDIVELKKDEVILAKADDVEILHADDIEIYPIGRDKLSAGGSAGG [r6_810_TrMRF]
folding stability dG unfold [1]: 0.23 ± 0.048 kcal/mol | folding stability dG unfold [2]: -0.503 ± 0.29 kcal/mol | folding stability dG unfold [3]: -0.0393 ± 0.22 kcal/mol

SAGGSAGGIWFMIKSAEDLKNLLNKWGWTIKDISVERWENDDGYVWIPIKIKPVPPPPPPEEDKSAGGSAGG [r6_981_TrROS]
folding stability dG unfold [1]: 2.36 ± 0.086 kcal/mol | folding stability dG unfold [2]: 3.77 ± 0.061 kcal/mol | folding stability dG unfold [3]: 3.06 ± 0.44 kcal/mol

SAGGSAGGIWIPVPDGYWIKIEMPDNNGEPKATHEMDSPADVEEALEEMPPDNLTKVEIWPLPDSAGGSAGG [r6_705_TrROS]
folding stability dG unfold [1]: 0.875 ± 0.16 kcal/mol | folding stability dG unfold [2]: 0.902 ± 0.21 kcal/mol | folding stability dG unfold [3]: 0.532 ± 0.71 kcal/mol

SAGGSAGGKEIKVIELPEEKVTIEVTITLEDGTVIKVTAVIDAETGEIVEITSVEIVPLPAEEKSAGGSAGG [r6_927_TrROS_Hall]
folding stability dG unfold [1]: -0.122 ± 0.11 kcal/mol | folding stability dG unfold [2]: 1.88 ± 0.2 kcal/mol | folding stability dG unfold [3]: 1.36 ± 0.21 kcal/mol

SAGGSAGGKEPFTVDKVEATVPFPGADGTEGVVLVTLPNGEKRLIPASELPLENLQPDGTVSSASAGGSAGG [r6_609_TrMRF]
folding stability dG unfold [1]: 0.161 ± 0.034 kcal/mol | folding stability dG unfold [2]: 0.328 ± 0.037 kcal/mol | folding stability dG unfold [3]: 0.302 ± 0.11 kcal/mol

SAGGSAGGKIEIVFETPSGDIVPITYDPKTKKVDVTVRNKDGKPSEELKEKAIELAKKLIEELESAGGSAGG [r6_224_TrMRF]
folding stability dG unfold [1]: 0.29 ± 0.25 kcal/mol | folding stability dG unfold [2]: 1.05 ± 0.15 kcal/mol | folding stability dG unfold [3]: 0.519 ± 0.26 kcal/mol

SAGGSAGGKITLLDEEEIEEVAKELGIDPENIRVIKVENEIIAILSKAKPLTPEKLKEIVEKLKSAGGSAGG [r6_243_JUSTAS]
folding stability dG unfold [1]: 1.06 ± 0.021 kcal/mol | folding stability dG unfold [2]: 0.686 ± 0.029 kcal/mol | folding stability dG unfold [3]: 0.934 ± 0.055 kcal/mol

SAGGSAGGKKKIIKIKNKDGEYLIKVKTKDGKTVEFKKFKSLEEALKALPKEKIEKIEIIPLKKSAGGSAGG [r6_307_TrROS_Hall]
folding stability dG unfold [1]: 1.64 ± 0.085 kcal/mol | folding stability dG unfold [2]: 2.4 ± 0.1 kcal/mol | folding stability dG unfold [3]: 2.06 ± 0.42 kcal/mol

SAGGSAGGKKKTIVIKADSLEELKAALEALPEKVEVRLPNGETITLEVDGKKVEIKVISPEELKSAGGSAGG [r6_641_TrROS_Hall]
folding stability dG unfold [1]: 0.448 ± 0.039 kcal/mol | folding stability dG unfold [2]: 0.959 ± 0.048 kcal/mol | folding stability dG unfold [3]: 0.753 ± 0.14 kcal/mol

SAGGSAGGKKLTAEELAKKLKELIPDVEKVEIVSVDKKTKKVTIKVKTKKEKEKIKEALKELLKSAGGSAGG [r6_635_TrROS_Hall]
folding stability dG unfold [1]: 0.56 ± 0.064 kcal/mol | folding stability dG unfold [2]: 0.816 ± 0.048 kcal/mol | folding stability dG unfold [3]: 0.65 ± 0.1 kcal/mol

SAGGSAGGKKLYIVKIKIKNENGEEIEITLVFETEEQLKEALESLPIKNVKIEDVEIIPLEELKSAGGSAGG [r6_296_TrROS_Hall]
folding stability dG unfold [1]: 1.88 ± 0.051 kcal/mol | folding stability dG unfold [2]: 3.39 ± 0.098 kcal/mol | folding stability dG unfold [3]: 3 ± 0.063 kcal/mol

SAGGSAGGKKYEVVSTIKDPATGETITVIKKDGKLIITITNKNGETKTIEITVKPGETITITAPSAGGSAGG [r6_379_TrROS_Hall]
folding stability dG unfold [1]: 1.93 ± 0.077 kcal/mol | folding stability dG unfold [2]: 1.57 ± 0.026 kcal/mol | folding stability dG unfold [3]: 1.74 ± 0.057 kcal/mol

SAGGSAGGKLKIEITLEKVKNPETKEYYYRLRVTIYNENGKKIKEIEVVAKSKEEALEALKKLLSAGGSAGG [r6_974_TrROS_Hall]
folding stability dG unfold [1]: 4.98 ± 0.22 kcal/mol | folding stability dG unfold [2]: 5.24 ± 0.068 kcal/mol | folding stability dG unfold [3]: 5.2 ± 0.13 kcal/mol

SAGGSAGGKLKVRIEIYRKDPKTNKWTKVKTIEIEIEAESEEELLAAAKALAPPGYEVKVELLPSAGGSAGG [r6_623_TrROS_Hall]
folding stability dG unfold [1]: 4.26 ± 0.24 kcal/mol | folding stability dG unfold [2]: 5.23 ± 0.21 kcal/mol | folding stability dG unfold [3]: 5.15 ± 0.34 kcal/mol

SAGGSAGGKLVIGVFIPGLTPEQAEALVKLLEALGYPKENVTVVVFNVPALPPPGLEELLTKNGSAGGSAGG [r6_243_TrMRF]
folding stability dG unfold [1]: 1.77 ± 0.071 kcal/mol | folding stability dG unfold [2]: 2.75 ± 0.042 kcal/mol | folding stability dG unfold [3]: 2.45 ± 0.16 kcal/mol

SAGGSAGGKLVVLLVRRPDGSLALRVTDAENPAEALEAARRNGMEALPLEVDDLEEFLEAIGLGSAGGSAGG [r6_495_TrMRF]
folding stability dG unfold [1]: 0.875 ± 0.076 kcal/mol | folding stability dG unfold [2]: 2.65 ± 0.09 kcal/mol | folding stability dG unfold [3]: 2.17 ± 0.13 kcal/mol

SAGGSAGGKNNETRRDPNNGNTYTRTGGKWEMEPVPPPIEIVPWPIWDPNGQDLELMWRVSINLSAGGSAGG [r6_313_TrROS]
folding stability dG unfold [1]: 1.06 ± 0.2 kcal/mol | folding stability dG unfold [2]: 0.497 ± 0.49 kcal/mol | folding stability dG unfold [3]: 0.838 ± 0.33 kcal/mol
